Test results as given in patent US20190269784A1, “Selective Inhibitors of the Polo-Like Kinase 1 Polo-Box Domain” (UNIVERSITY OF SOUTH CAROLINA, priority 2018, published 2019).
Square brackets hold non-standard residues; d marks the D form. Ends that are not written are not given here. Peptide text beside a SMILES is read from it. * marks the point of attachment. Benzoyl(4-octyl) = CCCCCCCCc1ccc(C(=O)*)cc1; pT = C[C@@H](OP(=O)(O)O)[C@H](N)C(=O)O; X1 = CCCCCCCCCc1ccc(C(=O)*)cc1

What was measured:
A549 cells = assay: MTT cell viability assay, A549; format: cell-based; conditions: A549, Kras mutant lung cancer, no delivery agent
Experimental: (§1) Accordingly, cell viability was measured using an MTT assay to determine the anti-proliferative activity for Compounds No. 15, 16, 17, and 18 with regard to three different cell types (HeLa, PC-3, and A549). The cells utilized were chosen due to reported synthetic lethal interactions with PLK1 inhibition

PC-3 cells = assay: MTT cell viability assay, PC-3; format: cell-based; conditions: PC-3, PTEN deficient prostate cancer, no delivery agent
Experimental: as §1

[1] = system: RPE cells expressing PLK1 C67V mutant; format: cell-based; conditions: for sensitivity of RPE cells to FLIPs, in words: FIG. 8
HeLa cells = assay: MTT cell viability assay, HeLa; format: cell-based; conditions: no delivery agent
Experimental: as §1

PLK3 PBD = target: T1, PLK3 PBD (Homo sapiens, UniProt Q9H4B4); assay: Fluorescence polarization competitive binding assay, PLK3 PBD
T1 construct: A similar assay format was developed for the PLK3 PBD
T1 sequence (Q9H4B4 335-646 limits assumed): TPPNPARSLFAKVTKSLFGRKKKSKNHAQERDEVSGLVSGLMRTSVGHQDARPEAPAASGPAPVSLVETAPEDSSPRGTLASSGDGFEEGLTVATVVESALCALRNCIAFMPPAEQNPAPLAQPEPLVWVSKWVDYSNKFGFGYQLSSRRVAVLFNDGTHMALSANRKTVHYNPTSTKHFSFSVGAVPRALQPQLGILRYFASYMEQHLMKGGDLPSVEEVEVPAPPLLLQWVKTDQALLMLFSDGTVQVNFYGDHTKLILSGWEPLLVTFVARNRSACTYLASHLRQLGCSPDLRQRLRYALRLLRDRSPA
Experimental: (§2) The binding of fluorescein-labelled tracer peptides used for both assays was determined to see if there was a difference in affinity for their respective PBD. A titration curve for each tracer/PLK PBD complex was generated to determine Kd values for each and therefore compare the relative binding affinities.
(§3) The affinities of the peptides for PLK1 and PLK3 were measured by plotting the loss of polarization against increasing concentration of competitor peptide through use of an optimized assay and selectivity determination.

PC3 cells = assay: Cell cycle analysis of serum-starved PC3 cells; format: cell-based; conditions: 200 μM, 24 hours, PC3 synchronized by serum starvation; mock 19.9%
Experimental: To examine the cellular phenotype of PLK1 inhibition through the Polo-box domain, PC3 cells synchronized in G1 through serum starvation were treated with Compound No. 16. Cells were synchronized by serum starvation for 24 hours prior to treatment. Untreated cells were serum starved and then released into drug-free media for 24 hours (left panel) as control. Sample cells were serum starved and then treated with 200 μM Compound No. 16 for 24 hours (right panel).

[2] = system: RPE cells expressing wild-type PLK1; format: cell-based; conditions: read-out: growth inhibition, RPE cells expressing wild-type PLK1
PLK1 PBD = PLK1 PBD (Homo sapiens, UniProt P53350); assay: Fluorescence polarization competitive binding assay, PLK1 PBD
Sequence of PLK1 PBD (P53350 367-603 limits assumed): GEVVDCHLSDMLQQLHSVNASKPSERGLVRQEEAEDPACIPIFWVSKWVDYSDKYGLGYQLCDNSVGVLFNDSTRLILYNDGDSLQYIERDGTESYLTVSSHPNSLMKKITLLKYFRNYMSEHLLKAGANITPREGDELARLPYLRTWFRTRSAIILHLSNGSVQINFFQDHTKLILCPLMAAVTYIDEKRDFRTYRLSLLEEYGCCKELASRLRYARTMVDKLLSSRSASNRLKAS
Experimental: According to the assay, binding of a fluorescent tracer peptide to a protein increased polarization of the emitted fluorescence. […] The ability of test molecules to bind to the PBD was quantitated by a reduction in mP values that occurred as the tracer was displaced from the PBD, and plotted to calculate as an IC50 value.
as §3

[3] = system: BubR1 phosphorylation in PC-3 cells; assay: Immunoblotting for BubR1 phosphorylation and pHH3 in PC-3 cells; format: cell-based; conditions: 5-30 μM, 23 hours
Experimental: To measure the PLK1 inhibitory activity of the FLIPs in cells, phosphorylation of the mitotic protein BubR1 was measured. PC-3 cells were serum starved for 72 h and released from the G1-S boundary. 16 h after released, cells were arrested at prometaphase by treatment with 100 ng/ml Colcemid or treated with 50 nM BI2536 PLK1 kinase inhibitor or 5-30 μM of Compound No. 18 for 23 hours. Cells were trypsinized and whole cell lysate was prepared. The obtained total cell lysate was subjected to immunoblotting with anti-BubR1 (top panel, FIG. 9), anti-β tubulin (middle panel, FIG. 9), and anti-pHH3 (bottom panel, FIG. 9).

[4] = target: polo-box domain (PBD) of polo-like kinase 1 (PLK1) (UniProt P53350); assay: from FP IC50s, (IC50 PLK3 PBD/IC50 PLK1 PBD)x5; PLK1 PBD against PLK3 PBD
Sequence of polo-box domain (PBD) of polo-like kinase 1 (PLK1) (UniProt P53350) (P53350 367-603 limits assumed): as above

[5] = target: polo-box domain (PBD) of polo-like kinase 1 (PLK1) (UniProt P53350); assay: fluorescence polarization competition on PLK1 PBD
[6] = target: polo-box domain (PBD) of polo-like kinase 3 (PLK3) (UniProt Q9H4B4); assay: fluorescence polarization competition on PLK3 PBD
[7] = target: polo-box domain (PBD) of polo-like kinase 1 (PLK1) (UniProt P53350); assay: from FP IC50s; PLK1 PBD against PLK3 PBD
[8] = target: polo-box domain (PBD) of polo-like kinase 1 (PLK1) (UniProt P53350); assay: fluorescence polarization competition, displacement of tracer peptide from PLK1 PBD
[9] = target: polo-like kinase 1 (PLK1), wild type, in cells (UniProt P53350 2-603, limits assumed); assay: cell-based or functional assay
Sequence of polo-like kinase 1 (PLK1), wild type, in cells (P53350 2-603 limits assumed): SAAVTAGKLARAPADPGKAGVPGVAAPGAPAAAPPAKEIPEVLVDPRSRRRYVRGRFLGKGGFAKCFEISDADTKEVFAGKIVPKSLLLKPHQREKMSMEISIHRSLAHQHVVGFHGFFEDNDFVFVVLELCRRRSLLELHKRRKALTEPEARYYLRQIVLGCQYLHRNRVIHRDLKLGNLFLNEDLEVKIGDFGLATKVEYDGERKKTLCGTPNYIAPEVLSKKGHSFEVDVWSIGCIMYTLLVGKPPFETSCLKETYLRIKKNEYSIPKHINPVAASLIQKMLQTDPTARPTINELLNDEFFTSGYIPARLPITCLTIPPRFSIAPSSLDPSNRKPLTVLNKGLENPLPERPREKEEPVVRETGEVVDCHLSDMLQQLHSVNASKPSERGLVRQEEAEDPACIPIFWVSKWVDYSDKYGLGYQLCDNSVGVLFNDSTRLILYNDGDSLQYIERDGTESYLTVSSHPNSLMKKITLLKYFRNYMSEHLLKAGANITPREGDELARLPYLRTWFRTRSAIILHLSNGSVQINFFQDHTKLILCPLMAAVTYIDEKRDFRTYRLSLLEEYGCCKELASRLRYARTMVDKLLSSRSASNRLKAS

[10] = target: polo-box domain (PBD) of polo-like kinase 3 (PLK3) (UniProt Q9H4B4); assay: fluorescence polarization competition, displacement of tracer peptide from PLK3 PBD
[11] = target: T2, polo-box domain (PBD) of polo-like kinase 1 (PLK1) (UniProt P53350 367-603, limits assumed); assay: fluorescence polarization competition on PLK1 PBD
T2 construct: domain: polo-box domain (PBD); the background speaks of the four known human PLKs and the residue numbers (L491) fit human PLK1; also called PLK1 PBD; PBD of PLK1
T2 sequence (P53350 367-603 limits assumed): as the sequence (P53350 367-603 limits assumed) above

[12] = target: T2, polo-box domain (PBD) of polo-like …; assay: fluorescence polarization competition, displacement of tracer peptide from PLK1 PBD
Text: (§4) According to the assay, binding of a fluorescent tracer peptide to a protein increased polarization of the emitted fluorescence. […] The ability of test molecules to bind to the PBD was quantitated by a reduction in mP values that occurred as the tracer was displaced from the PBD, and plotted to calculate as an IC₅₀ value.

[13] = target: T3, polo-box domain (PBD) of polo-like kinase 3 (PLK3) (UniProt Q9H4B4 335-646, limits assumed); assay: fluorescence polarization titration of tracer with PLK3 PBD
T3 construct: domain: polo-box domain (PBD); also called PLK3 PBD; PBD of PLK3
T3 sequence (looked up): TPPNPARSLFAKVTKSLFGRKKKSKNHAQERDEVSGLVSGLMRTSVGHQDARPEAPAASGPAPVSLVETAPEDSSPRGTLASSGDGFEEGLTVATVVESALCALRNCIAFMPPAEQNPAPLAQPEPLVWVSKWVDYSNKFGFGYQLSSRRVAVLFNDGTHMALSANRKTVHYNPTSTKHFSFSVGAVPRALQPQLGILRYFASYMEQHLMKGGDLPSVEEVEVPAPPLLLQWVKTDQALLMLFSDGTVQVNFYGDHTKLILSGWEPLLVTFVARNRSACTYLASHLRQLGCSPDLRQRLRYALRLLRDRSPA
Experimental: as §4, §2

[14] = target: T3, polo-box domain (PBD) of polo-like …; assay: fluorescence polarization competition, displacement of tracer peptide from PLK3 PBD
Experimental: as §4, §2, §3

CCCCCCCCc1ccc(C(=O)N[C@@H](CO)C(=O)N[C@H](C(=O)N[C@@H](C)C(=O)N[C@H](C(=O)O)[C@@H](C)CC)[C@@H](C)OP(=O)(O)O)cc1 [Compound 15] ({Benzoyl(4-octyl)}-S[pT]AI-OH; C-terminus assumed)
IC50 (A549 cells): 79.5 µM | IC50 (PC-3 cells): 55.7 µM | sensitivity of RPE cells to FLIPs, in words [1]: sensitive | IC50 (HeLa cells): 128 µM

CCCCCCCCc1ccc(C(=O)N[C@@H](CO)C(=O)N[C@H](C(=O)N2CCC[C@H]2C(=O)N[C@@H](CC(C)C)C(=O)O)[C@@H](C)OP(=O)(O)O)cc1 [Compound 16] ({Benzoyl(4-octyl)}-S[pT]PL-OH; C-terminus assumed)
fold reduction of PLK3 PBD binding relative to parent compound (PLK3 PBD): 3-4 fold | IC50 (PLK3 PBD; competition with fluorescent tracer peptide, read-out: PLK3 PBD FP IC50): 620 ± 72.5 µM | accumulation in G2/M (PC3 cells): 53% | IC50 ([1]; C67V mutant PLK1, read-out: growth inhibition, RPE cells expressing PLK1 C67V mutant): 86.8 µM | sensitivity of RPE cells to FLIPs, in words [1]: sensitive | IC50 [2]: 158 µM | fold reduction of PLK1 PBD binding relative to parent compound (PLK1 PBD): 3-4 fold

CCCCCCCCCc1ccc(C(=O)N[C@@H](CO)C(=O)N[C@H](C(=O)N[C@@H](C)C(=O)N[C@H](C(N)=O)[C@@H](C)CC)[C@@H](C)OP(=O)(O)O)cc1 [Compound 18] (X1-S[pT]AI-NH2; N-terminus assumed)
BubR1 phosphorylation (anti-BubR1 immunoblot) [3]: inhibited the BubR1 phosphorylation | mitotic block (anti-pHH3 immunoblot) [3]: blocked the cells at mitosis

GPLATS[pT]PNGL (SEQ ID NO: 8)
Selectivity Index [4]: 2860 | fold reduction of affinity against the PLK3 consensus peptide (SEQ ID NO: 7) [5]: 2 fold | fold reduction of affinity against the PLK3 consensus peptide (SEQ ID NO: 7) [6]: 3 fold

B1: Compound No. 17, 4-octyl S[pT]AI (SEQ ID NO: 13), R1 group on the C-terminal (peptide)
peptide: S[pT]AI
modifications: also: 4-octyl R1 group on C-terminus, 'C-terminal amidated octyl', terminal chemistry unclear
Selectivity Index [7]: 79 | IC50 [8]: 1.49 µM | MTT IC50 [µM] HeLa [9]: 38.9 µM | MTT IC50 [µM] PC-3 [9]: 41.5 µM | IC50 [10]: 117 µM

{4‑(propylamino)benzoyl}-S[pT]PNGL (also: further groups not given here, see m14; also called Compound No. 9) [Compound #9, propylamino FLIP (R1 = NCH2CH2CH3)]
fold increase of activity against Compound #8 [11]: > 2 fold | IC50 [12]: 5.4 µM

{4‑methoxybenzoyl}-S[pT]PNGL (also: further groups not given here, see m14; also called Compound No. 2) [Compound #2, methoxy derivative FLIP (R1 = OCH3)]
IC50 [12]: 21.9 µM

{Benzoyl(4-octyl)}-S[pT]PL [Compound No. 16, 4-octyl S[pT]PL (SEQ ID NO: 14)]
fold weaker affinity against Compound No. 15 [5]: 3 to 4 fold | Selectivity Index [7]: 2580 | IC50 [8]: 1.2 µM | fold weaker affinity against Compound No. 15 [6]: 3 to 4 fold | MTT IC50 [µM] A549 [9]: 160 µM | MTT IC50 [µM] HeLa [9]: 142 µM | MTT IC50 [µM] PC-3 [9]: 103 µM

{4‑(methylamino)benzoyl}-S[pT]PNGL (also: further groups not given here, see m14; also called Compound No. 8) [Compound #8, methylamino FLIP (R1 = NCH3)]
IC50 [12]: 11.2 µM

B2: Compound No. 18, 4-nonyl S[pT]AI (SEQ ID NO: 13), R1 group on the C-terminal (peptide)
peptide: S[pT]AI
modifications: also: 4-nonyl R1 group on C-terminus, 'C-terminal amidated nonyl', terminal chemistry unclear
Selectivity Index [7]: 78 | IC50 [8]: 1.23 µM | MTT IC50 [µM] HeLa [9]: 38.2 µM | MTT IC50 [µM] PC-3 [9]: 27 µM | IC50 [10]: 95.9 µM

{4‑(methylthio)benzoyl}-S[pT]PNGL (also: further groups not given here, see m14; also called Compound No. 7) [Compound #7, thiomethyl FLIP (R1 = SCH3)]
IC50 [12]: 3 µM

B3: PLK3 binding tracer (fluorescein-labelled SEQ ID NO: 7) (peptide)
peptide: GPLATS[pT]PKNG
modifications: also: fluorescein-labelled, site not given here
notes: also called PLK3 tracer; fluorescein-labelled tracer for the PLK3 PBD
Kd [13]: 0.0272 µM

{4‑ethoxybenzoyl}-S[pT]PNGL (also: further groups not given here, see m14; also called Compound No. 3) [Compound #3 FLIP (R1 = OCH2CH3)]
IC50 [12]: 15.9 µM

LLCS[pT]PNGL (also called native Cdc25C peptide) [Cdc25C PBD substrate peptide LLCS[pT]PNGL (SEQ ID NO: 1)]
IC50 [14]: > 600 µM | Selectivity Index [4]: > 17000 | IC50 [8]: 0.17 µM

{Benzoyl(4-octyl)}-S[pT]AI [Compound No. 15, 4-octylbenzamide N-capped S[pT]AI (SEQ ID NO: 13)]
Selectivity Index [7]: 1860 | IC50 [8]: 0.41 µM | MTT IC50 [µM] A549 [9]: 79.5 µM | MTT IC50 [µM] HeLa [9]: 128 µM | MTT IC50 [µM] PC-3 [9]: 55.7 µM | IC50 [10]: 153 µM

{4‑phenethoxybenzoyl}-S[pT]PNGL (also: further groups not given here, see m14; also called Compound No. 6) [Compound #6, 4-phenethoxy FLIP (R1 = OCH2CH2C6H5)]
IC50 [12]: 4.5 µM
